# Source: patent US20210070843A1
# Positions count from the first letter of the chain named.
# B1: P47 (antibody, V domains shown)
# VH: EVQLVESGGGLVQPGGSLRLSCAASGFTIGNSGIHWVRQAPGKGLEWVASIWPSGGSTYYADSVKGRFTISADTSKNTAYLQMNSLRAEDTAVYYCARFGHIDGDIMDYWGQGTLVTVSS
# VL: DIQMTQSPSSLSASVGDRVTITCRASQDVYYYVAWYQQKPGKAPKLLISGSSYLYSGVPSRFSGSGSGTDFTLTISSLQPEDFATYYCQQYYNWPLTFGQGTKVEIKR
# B2: P25 (antibody, V domains shown)
# VH: EVQLVESGGGLVQPGGSLRLSCAASGFTISNGGIHWVRQAPGKGLEWVAGIGPYGGYTYYADSVKGRFTISADTSKNTAYLQTNSLRAEDTAVYYCARFYGYSGIMDYWGQGTLVTVSS
# VL: B1 VL with Y30W, Y31G, S52R, Y53S, W94Y, L96I
# B3: P28 (antibody, V domains shown)
# VH: EVQLVESGGGLVQPGGSLRLSCAASGFTINNSGIHWVRQAPGKGLEWVASIWPSGGYTYYADSVKGRFTISADTSKNTAYLQMNSLRAEDTAVYYCARFNSSYSSGLMDYWGQGTLVTVSS
# VL: B1 VL with Y30W, Y32S, S49Y, G50F, S51A, S52T, Y53G, Y92F, L96V
# B4: S07 (antibody, V domains shown)
# VH: B1 VH with G30N, N31S, W52G, G55W, H101I, I102G, G104I, I106V
# VL: B1 VL with Y30W, Y31G, G50Y, S51A, Y53F, Y92F, L96V
# B5: P10 (antibody, V domains shown)
# VH: B1 VH with G30D, G33W, S54F, S57Y, H101N, I102V, D103F, G104D, D105W, I106Y
# VL: DIQMTQSPSSLSASVGDRVTITCRASQDVNSNVAWYQQKPGKAPKLLIYWAGYLYSGVPSRFSGSGSGTDFTLTISSLQPEDFATYYCQQSSDFPITFGQGTKVEIKR
# B6: P14 (antibody, V domains shown)
# VH: B1 VH with N31D, S32F, S50G, S54F, S57Y, G100V, H101N, I102W, I106Y
# VL: B1 VL with Y30G, Y31F, G50W, W94Y
# B7: S01 (antibody, V domains shown)
# VH: B1 VH with G30N, S32Y, S57Y, Y59S, H101L, I102G, G104Y
# VL: B1 VL with Y30W, Y31G, G50F, S51P, Y53S, N93D, W94G, L96V
# B8: S40 (antibody, V domains shown)
# VH: B1 VH with N31D, S32F, S50G, S54F, S57Y, G100V, H101N, I102W, I106Y
# VL: B1 VL with Y30G, Y31F, G50W, W94Y
# B9: S51 (antibody, V domains shown)
# VH: EVQLVESGGGLVQPGGSLRLSCAASGFTIDDWGIHWVRQAPGKGLEWVAWIWPYGGFTSYADSVKGRFTISADTSKNTAYLQMNSLRAEDTAVYYCARFGFVDWNLMDYWGQGTLVTVSS
# VL: B1 VL with Y30W, Y31G, G50Y, S51T, S52T, W94S, L96V
# B10: P48 (antibody, V domains shown)
# VH: EVQLVESGGGLVQPGGSLRLSCAASGFTINSWGIHWVRQAPGKGLEWVAGIGPSWGYTSYADSVKGRFTISADTSKNTAYLQMNSLRAEDTAVYYCARFGDGDFDLMDYWGQGTLVTVSS
# VL: B1 VL with Y30W, Y31S, G50Y, S51T, Y92F, L96I
# B11: C05 (antibody, V domains shown)
# VH: PVQLQESGGGLVQPGESLRLSCVGSGSSFGESTLSYYAVSWVRQAPGKGLEWLSIINAGGGDIDYADSVEGRFTISRDNSKETLYLQMTNLRVEDTGVYYCAKHMSMQQVVSAGWERADLVGDAFDVWGQGTMVTVSS
# VL: DIQLTQSPSSLSASVGDRVTLTCQASQDIRKFLNWYQQKPGKGPKLLIYDASNLQRGVPSRFSGGGSGTDFTLIISSLQPEDVGTYYCQQYDGLPFTFGGGTKVEIKR
# Molecular target: full-length H1 A/California/07/2009 HA expressed on 293T cells (influenza A virus A/California/07/2009 (H1N1))
# Experiment: flow cytometry, HA-expressing 293T
Binder,EC50,max. MFI
B1,0.61 µg/mL,10200 MFI
B2,0.761 µg/mL,2380 MFI
B3,,168 MFI
B4,1.61 µg/mL,10800 MFI
B5,0.41 µg/mL,9660 MFI
B6,0.125 µg/mL,8340 MFI
B7,0.384 µg/mL,8430 MFI
B8,0.46 µg/mL,8630 MFI
B9,0.754 µg/mL,6290 MFI
B10,2.4 µg/mL,7860 MFI
B11,,86 MFI

# Molecular target: full-length H5 A/Vietnam/1203/2004 HA expressed on 293T cells (influenza A virus A/Vietnam/1203/2004 (H5N1))
# Experiment: flow cytometry, HA-expressing 293T
Binder,max. MFI,EC50
B1,396 MFI,
B2,318 MFI,
B3,193 MFI,
B4,863 MFI,4.98 µg/mL
B5,517 MFI,
B6,328 MFI,
B7,306 MFI,
B8,724 MFI,2.85 µg/mL
B9,452 MFI,
B10,474 MFI,
B11,547 MFI,

# Molecular target: cell surface-expressed H3N2 WN/05 HA trimer (influenza A virus A/Wisconsin/67/2005 (H3N2))
# Experiment: flow cytometry, HA-expressing 293T
Binder,max. MFI,EC50
B1,175 MFI,
B2,152 MFI,
B3,127 MFI,
B4,410 MFI,3.71 µg/mL
B5,117 MFI,
B6,154 MFI,
B7,178 MFI,
B8,109 MFI,
B9,340 MFI,
B10,258 MFI,
B11,14600 MFI,0.13 µg/mL

# Molecular target: H7 A/Anhui/1-BALF_RG17/2013 HA on H7N9 AH/13 pseudo virus (influenza A virus A/Anhui/1-BALF_RG17/2013 (H7N9))
# Experiment: cell-based or functional assay
row,Binder,IC50 of pseudo virus neutralization H7N9 AH/13
1,B1,> 200 µg/mL
2,B2,> 200 µg/mL
3,B3,> 200 µg/mL
4,B4,> 200 µg/mL
5,B5,> 200 µg/mL
6,B6,> 200 µg/mL
7,B7,> 200 µg/mL
8,B8,> 200 µg/mL
9,B9,> 200 µg/mL
10,B10,> 200 µg/mL
11,B11,> 200 µg/mL

# Molecular target: full-length H1 A/California/07/2009 HA expressed on 293T cells (influenza A virus A/California/07/2009 (H1N1))
# Experiment: cell-based or functional assay
Binder,IC50 of pseudo virus neutralization H1N1 CA/09,IC50 of true virus neutralization H1N1 CA/09
B1,> 100 µg/mL,> 500 µg/mL
B2,> 100 µg/mL,> 500 µg/mL
B3,> 100 µg/mL,> 500 µg/mL
B4,> 100 µg/mL,> 500 µg/mL
B5,0.465 µg/mL,> 500 µg/mL
B6,> 100 µg/mL,4390 µg/mL
B7,> 100 µg/mL,> 500 µg/mL
B8,> 100 µg/mL,436 µg/mL
B9,> 100 µg/mL,> 500 µg/mL
B10,> 100 µg/mL,> 500 µg/mL
B11,> 100 µg/mL,> 500 µg/mL

# Molecular target: full-length H5 A/Vietnam/1203/2004 HA expressed on 293T cells (influenza A virus A/Vietnam/1203/2004 (H5N1))
# Experiment: cell-based or functional assay
row,Binder,IC50 of pseudo virus neutralization H5N1 VN/04
1,B1,> 200 µg/mL
2,B2,> 200 µg/mL
3,B3,> 200 µg/mL
4,B4,> 200 µg/mL
5,B5,> 200 µg/mL
6,B6,> 200 µg/mL
7,B7,> 200 µg/mL
8,B8,> 200 µg/mL
9,B9,> 200 µg/mL
10,B10,> 200 µg/mL
11,B11,> 200 µg/mL

# Molecular target: cell surface-expressed H3N2 WN/05 HA trimer (influenza A virus A/Wisconsin/67/2005 (H3N2))
# Experiment: cell-based or functional assay
row,Binder,IC50 of pseudo virus neutralization H3N2 WN/05
1,B1,> 20 µg/mL
2,B2,> 20 µg/mL
3,B3,> 20 µg/mL
4,B4,> 20 µg/mL
5,B5,> 20 µg/mL
6,B6,> 20 µg/mL
7,B7,> 20 µg/mL
8,B8,> 20 µg/mL
9,B9,> 20 µg/mL
10,B10,> 20 µg/mL
11,B11,0.0102 µg/mL
